Test results published in patent US20240425607A1, “IL-18BP ANTAGONIST ANTIBODIES AND THEIR USE IN MONOTHERAPY AND COMBINATION THERAPY IN THE TREATMENT OF CANCER” (Compugen Ltd., priority 2023, published 2024).
Substitutions are numbered along the chain they refer to.

What was measured:
[1] = target: T1, recombinant human IL18-BP (Homo sapiens, UniProt O95998); assay: MEL624:TIL assay; type: cell-based; details: rhIL-18 30 ng/ml + rhIL-18BP 1 μg/ml, vs isotype control
T1 construct: purchased R&D systems 119-BP
T1 sequence (O95998 31-194): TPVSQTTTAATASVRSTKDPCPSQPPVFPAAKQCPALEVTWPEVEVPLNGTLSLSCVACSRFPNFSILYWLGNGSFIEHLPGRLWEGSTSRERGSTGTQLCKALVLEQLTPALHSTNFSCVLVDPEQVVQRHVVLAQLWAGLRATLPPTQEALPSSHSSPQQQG
Procedure: Human MEL624 cells were thawed and grown in DMEM with 10% FBS, 1% Glutamax, 1% Penicillin-Streptomycin Solution and 1% HEPES buffer. The cells were then seeded at 75 k cells/well in a 96 well plate in the assay medium (IMDM with 10% human serum, 1% Glutamax, 1% MEM eagle, 1% Sodium Pyruvate and 1% Penicillin-Streptomycin Solution) and incubated 1 hour in 37° C., 5% CO2 incubator before co-culture with human tumor infiltrating lymphocytes that were previously expanded using known melanoma antigens (TILs). Human TILs were thawed in full TIL media and 75 k cells/well were co-cultured with the MEL624 cells to create an effector: target ratio of 1:1. The co-cultured cells were then treated with rhIL-18 (30 ng/ml) and rhIL-18BP (1 μg/ml) for 30 min in 37° C., 5% CO2 incubator to allow IL-18:IL-18BP complex formation. After 30 minutes, anti-human IL-18BP mAb (ADI-71722, dose titration, 30 μg/ml-0.01 μg/ml, dilution factor of 1:3) or relevant isotype control (hIgG1 30 μg/ml) were added to the co-culture to examine its capability to restore IL-18 activity. Cells and all added solutions were prepared in full assay medium to a final volume of 200 μl/well. Plates were incubated for 24 hours in 37° C., 5% CO2 incubator, after which the supernatant was collected for cytokine secretion evaluation. All tests were done in triplicates and each repeated with TIL four donors. […]

SEC-HPLC % monomer = type: physicochemical; details: optimized antibodies
Procedure: A TSKgel SuperSW mAb HTP column (22855) was used for fast SEC analysis of mammalian produced mAbs at 0.4 mL/min with a cycle time of 6 min/run. 200 mM Sodium Phosphate and 250 mM Sodium Chloride was used as the mobile phase.

[2] = Fab Tm by dynamic scanning fluorimetry (DSF); type: physicochemical; details: optimized antibodies
Procedure: 10 μL of 20× Sypro Orange is added to 20 μL of 0.2-1 mg/mL mAb or Fab solution. A RT-PCR instrument (BioRad CFX96 RT PCR) is used to ramp the sample plate temperature from 40 to 95° C. at 0.5° C. increment, with 2 min equilibrate at each temperature. The negative of first derivative for the raw data is used to extract Tm.

[3] = target: T1, recombinant human IL18-BP; assay: CMV recall assay; type: cell-based
Procedure: Human MEL-624 overexpressing PD-L1 cells were thawed and loaded with CMV pp65 peptide (0.03 μg/ml). The cells were seeded at 100K/well in a 96 well plate and incubated for 30 minutes in 37° C., 5% C02 incubator with a combination rhIL-18 (30 ng/ml, R&D systems, 9124-IL/CF) and rhIL-18BP-Fc chimeric protein (2 μg/ml, R&D systems 119-BP) to allow IL-18+IL-18BP complex formation. After 30 minutes, anti-human IL-18BP (ADI-71722), anti-human PVRIG, anti-human TIGIT (anti-TIGIT), anti-human PD1 (Pembrolizumab) or relevant isotype control (hIgG4) were added to the culture to examine their capability to restore IL-18 activity. All antibodies were added to a final concentration of 10 μg/ml. 30 minutes post incubation with antibodies, thawed CMV-reactive T-cells were added to the culture. Cells and all added solutions were prepared in full IMDM (IMDM media with 10% human serum, 1% Glutamax, 1% MEM eagle, 1% sodium pyruvate, and 1% Penicillin-Streptomycin Solution) to a final volume of 200 μl/well. Plates were incubated for 24 hours in 37° C., 5% C02 incubator, after which the supernatant was collected for IFNγ secretion evaluation. All tests were done in triplicates and each repeated with three donors.
MEL624 cells that overexpress PD-L1 were loaded with CMV peptide pp65. […] CMV-specific T-cells were then added to the culture and IFNg secretion was measured after an overnight incubation.

[4] = target: T2, human IL18BP-Fc binding to human IL-18 (Homo sapiens, UniProt O95998); assay: Blocking of hIL18BP-hIL-18 interaction by ELISA, IL18BP plate bound; details: 1 ng/ml human IL-18, compared with clone W19089C
T2 sequence (O95998 31-194): T1 sequence (O95998 31-194)
Procedure: This assay was utilized to identify anti-human IL18BP Abs that inhibit the binding interaction between human IL18BP- and its counterpart, human IL-18. […] Human IL18BP-Fc protein was coated on the wells of a high binding plate overnight at 4° C. (1 μg/ml, 100 μl/well volume). Plates were washed three times with PBS-T buffer (1×PBS pH 7.4, 0.05% Tween20) incubated with 250 μL blocking buffer (2.5% skim milk in PBS) at room temperature (RT) for 2 hr. Blocking buffer was removed and plates were washed three times with PBS-T buffer. Plate-bound ligands were incubated with anti-human IL18BP Abs in 1% BSA in PBS buffer two times serially diluted (2.5-0.019 μg/ml, 100 μL/well volume) at RT for 1 h. Plates were washed one time with PBS. Plate-bound ligands were incubated with human IL-18 (cat. 9124-IL, R&D) in 1% BSA in PBS buffer (1 ng/ml, 100 μL/well volume) at RT for 1 h. Plates were washed three times with PBS-T (0.05% Tween20 in PBS). Biotinylated anti-IL18 detection antibody, cat. D045-6, R&D 1:1000 in 1% BSA in PBS buffer was added (100 μL/well). This was incubated at RT for 1 hr, and plates were washed again. Peroxidase Streptavidin, Jackson, cat. 016-030-084 1:1000 in 2.5% skim milk in PBS was added (100 μL/well) for 1 hr at RT. […] The HRP reaction was stopped by adding 50 μL 1N HCl and absorbance signals at 450 nm were read on a luminescence Reader-EnSpire (Perkin Elmar). […]

[5] = target: T3, human IL-18-BP : human IL-18 complex (Homo sapiens, UniProt O95998); assay: Competition ELISA with complex of soluble IL18-IL18BP; type: binding; details: ADI-66716 vs MAB1191
T3 construct: purchased R&D systems 119-BP
T3 sequence (O95998 31-194): T1 sequence (O95998 31-194)
Procedure: This assay was utilized to identify anti-human IL18BP Abs that inhibit the binding interaction between human IL18BP- and its counterpart, human IL-18. Commercial Ab anti human IL18BP (Clone 136007, cat. MAB1191, R&D systems) and ADI-66716 were tested for inhibition of human IL18BP protein binding to IL-18 by ELISA. Human IL18BP antibody (cat.AF 119, R&D) was coated on the wells of a high binding plate overnight at 4° C. (1 ug/ml, 100 μl/well volume). Plates were washed three times with PBS-T buffer (1×PBS pH 7.4, 0.05% Tween20) incubated with 250 μL blocking buffer (2.5% skim milk in PBS) at room temperature (RT) for 2 hr. Blocking buffer was removed and plates were washed three times with PBS-T buffer. Complex pre-formed 1 hour at 37° C. with 0.25 nM human IL-18-BP (R&D, cat. 119BP) and 3 nM Human IL-18 Biotin (9124-IL, R&D) in 1% BSA in PBS buffer. Complex was incubated for 2 hrs at RT together with anti-human IL18BP Abs (in 1% BSA in PBS buffer two times serially diluted. 4-0.06 μg/ml, 100 μL/well volume). Peroxidase Streptavidin, Jackson, cat. 016-030-084 1:1000 in 2.5% skim milk in PBS was added (100 μL/well) for 1 hr at RT. Plates were washed three times with PBS-T buffer (1×PBS pH 7.4, 0.05% Tween20). […] The HRP reaction was stopped by adding 50 μL 1N HCl and absorbance signals at 450 nm were read on a luminescence Reader-EnSpire (Perkin Elmar). […]

whole blood = assay: Whole blood loop assay (ID.Flow); type: cell-based, human; details: blood of six healthy volunteers, 24 hr
Procedure: Flow, an ex vivo system that mimics the human blood circulation. Fresh whole blood was taken from six healthy volunteers and immediately transferred to a whole blood loop system. The test items were administered, and the blood was set to circulate at 37° C. to prevent clotting. Blood samples collected at the 24 hr time point were analyzed for hematology and flow cytometry parameters and then processed to plasma for cytokine analysis. The anti-CD52 antibody Alemtuzumab was included as a reference antibody with manageable cytokine release in the clinic.

[6] = system: B16/Db-hmgp100 melanoma model; assay: B16/Db-hmgp100 syngeneic tumor model; details: 10 mg/kg from day 4
Procedure: B16/Db-hmgp100 cells were kindly provided by Dr. Hanada et al. (HHS agency) and were licensed from NIH. B16/Db-hmgp100 cells were generated by double transduction of B16F10 with H-2Db and a retrovirus that encodes chimeric mouse gp100 that is comprised of the human gp10025-33 and the rest of mouse gp100. Cells were cultured in RPMI 1640 (Biological Industries, 01-100-1A) with 10% FBS (Biological Industries, 04-127-1A), and 100 g/mL penicillin/streptomycin (Biological Industries, 03-031-1B), 1% Glutamax (Life technologies, 35050-038), 1% Sodium pyruvate (Biological Industries, 03-042-1B), 0.01% 2-mercaptoethanol (Life technologies, 31350-010), 10 μg/ml Blasticidin (InvivoGen, ant-bl-05). 1×10^5 B16/Db-hmgp100 cells subcutaneously into the back right flank of mice.
In both CT26 and B16/Db-hmgp100 models mAb administration started at day 4 (mono treatment) or day 7 post tumor inoculation when tumors were at volume of 30-50 mm^3 (combo treatment); and was given intra-peritoneal (i.p.) in a final volume/injection of 200 μl, for 3 wks for a total of 6 administrations. Tumor growth was measured with electronic caliper every 2-3 days and was reported as 0.5×W^2×L mm^3. […]
At day 4 post tumor inoculation mice were treated with mAbs (as detailed below) injected on day 4, 7, 11, 14, 18 and 21 post inoculation. Tumor growth was measured with caliper every 2-3 days. […]

B1: ADI-71722: anti-IL18-BP antibody, sequences in FIG. 2D; 66670 lineage (antibody, V domains shown)
VH: QVQLVQSGAEVKKPGSSVKVSCKASGGTFSEYPISWVRQAPGQGLEWMGGIIPGAGTAIYAQKFQGRVTITADESTSTAYMELSSLRSEDTAVYYCARGRHFHETWGQGTLVTVSS
VL: DIQMTQSPSSVSASVGDRVTITCRASQGISSWLAWYQQKPGKAPKLLIYAASSLQSGVPSRFSGSGSGTDFTLTISSLQPEDFATYYCQQVYRFPWTFGGGTKVEIK
For B1, the “IFNγ secretion from TILs” value [1] was “fully restore IL-18 activity”, the “SEC-HPLC, % monomer” value (SEC-HPLC % monomer) was 95.9% and the “Fab Tm (DSF, ° C.)” value [2] was 73.0 °C. For the same molecule, the “IFNγ secretion by CMV-reactive T-cells, as mono” value ([3]; 10 μg/ml, rhIL-18 30 ng/ml + rhIL-18BP 2 μg/ml) was “fully restore IFNγ secretion”, the “IFNγ secretion by CMV-reactive T-cells, in combination” value ([3]; combined with Pembrolizumab, anti-PVRIG or anti-TIGIT, each 10 μg/ml, vs mono) was “in a more potent manner” and the “Blocking effect on binding of human IL18BP to human IL-18” value [4] was “superior to Biolegend Ab”.

B2: ADI-66716: anti-IL18-BP antibody, sequences in FIG. 2N; parental (antibody, V domains shown)
VH: QLQLQESGPGLVKPSETLSLTCTVSGGSISSSDYYWGWIRQPPGKGLEWIGSIYYSGSTYYNPSLKSRVTISVDTSKNQFSLKLSSVTAADTAVYYCARGPHRQVFDYWGQGTLVTVSS
VL: B1 VL with V91G, Y92S, R93S, W96Y
With B2 the “Blocking of IL18-IL18BP complex formation” value [5] was “superior blocking effect to R&D antibody”.

B3: ADI-71709: anti-IL18-BP antibody, sequences in FIG. 2A; 66650 lineage (antibody, V domains shown)
VH: QVQLVQSGAEVKKPGASVKVSCEASGYTFDIYAVHWVRQAPGQRLEWMGWIHAGTGATKYSQKFQGRVTITRDTSASTAYMELSSLRSEDTAVYYCARGLGEVGPTGTSWFDPWGQGTLVTVSS
VL: DIQMTQSPSTLSASVGDRVTITCRASQSISSWLAWYQQKPGKAPKLLIYEASSLESGVPLRFSGSGSGTEFTLTISSLQPDDFATYYCQQYRQSPFTFGGGTKVEIK
For B3, the “SEC-HPLC, % monomer” value (SEC-HPLC % monomer) was 97.6%, the “Fab Tm (DSF, ° C.)” value [2] was 71.5 °C and the “Signs of systemic immune activation, in combination with Nivolumab” value (whole blood) was “did not show signs of systemic immune activation”. For the same molecule, the “Signs of systemic immune activation, as mono” value (whole blood; hematology, flow cytometry, cytokines) was “did not show signs of systemic immune activation”.

B4: anti-PVRIG: Anti PVRIG mAb 407 mAb mouse IgG1, BOJ-5G4-F4 (antibody, V domains shown)
VH: QVQLQQSGAELAKPGSSVMISCKASGYTFTNYAVHWIKQTTGQALEWTGYIAPGSGVTKYNEKFKGKATLTVDKSSTTAYMQLSSLTPVDTAVYYCASGTTRFAYWGQGTLVTVSS
VL: DIVLTQSPALAVSLGQRATISCRASQSVSLSSYNLMQWYQQKPGQEPKILIYDASNLPSGIPARFSGSGSGTDFTLTIDPVQADDIATYYCQQSKDDPLTFGSGTKLEIK
For B4, the “Tumor growth, anti-PVRIG monotherapy” value [6] was “comparable tumor growth to mice treated with isotype control mAbs”.
